# US20130224191A1, “NOTUM PROTEIN MODULATORS AND METHODS OF USE” (priority 2010, published 2013)
# Read-outs that look alike come from different tables or passages of the source.
# T1: Notum (Homo sapiens, UniProt Q6P988)
# T1 sequence (Q6P988 20-496): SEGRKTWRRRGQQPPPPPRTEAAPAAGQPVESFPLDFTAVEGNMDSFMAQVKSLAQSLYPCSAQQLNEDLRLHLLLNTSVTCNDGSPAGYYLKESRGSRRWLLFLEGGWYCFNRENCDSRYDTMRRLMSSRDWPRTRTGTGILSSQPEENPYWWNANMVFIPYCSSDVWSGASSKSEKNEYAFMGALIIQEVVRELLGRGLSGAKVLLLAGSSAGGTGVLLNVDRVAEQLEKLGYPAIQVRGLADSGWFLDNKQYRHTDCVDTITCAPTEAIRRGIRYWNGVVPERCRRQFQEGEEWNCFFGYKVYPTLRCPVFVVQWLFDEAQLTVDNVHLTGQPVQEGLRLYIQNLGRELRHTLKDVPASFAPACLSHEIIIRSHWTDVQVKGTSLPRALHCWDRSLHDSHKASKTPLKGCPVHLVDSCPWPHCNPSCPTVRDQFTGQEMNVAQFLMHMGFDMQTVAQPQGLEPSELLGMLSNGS
# What was measured:
# [1] = system: luciferase transcription in the 293.TCF cells; assay: Luciferase reporter activation in 293.TCF cells; assay type: cell-based, human; conditions: 40 mM
# Excerpt: To generate a stable population of cells that contain a reporter for the activation of canonical Wnt signaling, HEK 293T cells were transduced with a lentiviral vector, pGreenFirel-TCF (System Biosciences) which encodes a bifunctional GFP and luciferase reporter cassette under the control of a minimal CMV reporter linked to four tandem repeats of the transcriptional response elements for TCF. Transduced cells populations, termed 293.TCF cells, were subsequently used in a Wnt3A canonical signaling assay as follows: 2.5×10^4 293.TCF cells were plated per well of a 96-well tissue culture plate in 50 μL of serum-free DME medium. After 24 hours of serum starvation, 25 μL of various dilutions of conditioned medium (CM) from L/Wnt3A cells (ATCC CRL-2647; Willert, 2003) or undiluted CM from parental L-cells (ATCC CRL-2648) along with 25 μL of DMEM+0.2% FBS were added to each well. […] The contents of each well were then mixed thoroughly to lyse the cells, 100 μL of lysate transferred to black 96-well plates, and the luminescence in each well read after 5 mins using a Wallac Victor3 Multilabel Counter (Perkin-Elmer Corp). […] More particularly, as the Wnt3A+ CM media is diluted from 25% down to approximately 3%, activation of the Wnt pathway is reduced with a corresponding decrease in luminescence.
# Notum = molecular target: T1, Notum; assay: 4-MUH assay, small molecule inhibition of Notum; assay type: biochemical; conditions: 4-MUH 240 μM or 90 μM; orlistat 0-170 μM
# Experimental: (§1) In addition to the assays described in Examples 23 and 24, a fluorescent esterase substrate, 4-methylumbelliferyl heptanoate (Sigma), can be used to measure the activity of hydrolases using standard assay conditions (Richardson and Smith, 2007, PMID: 17620441; Jacks and Kircher, 1967, PMID: 5582971). Briefly, 4-MUH was dissolved in DMSO to a final concentration of 1.2 mM. This substrate was diluted 1:10 into assay buffer (0.1M Tris, pH 7.5, 50 mM NaCl, 0.05% Brij) and incubated with defined amounts of Notum enzyme or point-mutated Notum enzymes, and enzymatic release of the fluorescent molecule 4-methylumbelliferone monitored (355 nm excitation, 460 nm emission) using a Wallac Victor3 Multilabel Counter (Perkin Elmer).
# Consistent with a putative hydrolase activity for Notum, it could be hypothesized that this inactivation is related to the ability of Notum to delipidate Wnt3A. Two lipids are known to be linked to Wnt3A, a saturated palmitate chain at Cys77 and an unsaturated palmitoleoylic chain at S209 (Lorenowicz and Korswagen, 2009, PMID: 19559695). […] Therefore, the 4-MUH assay described in example 25 was performed in the presence of varying amounts of 4-MUH substrate (240 μM or 90 μM) and orlistat (0-170 μM).
# [2] = molecular target: Wnt3A (conditioned medium from L/Wnt3A cells, ATCC CRL-2647) (UniProt P27467); assay: cell-based or functional assay; parameters: unit not given beside the values
# [3] = system: Wnt3A-mediated induction of luciferase in the 293.TCF cells; assay: Wnt3A canonical signaling assay, bioactivity of Notum constructs; assay type: cell-based, human
# Excerpt: To generate a stable population of cells that contain a reporter for the activation of canonical Wnt signaling, HEK 293T cells were transduced with a lentiviral vector, pGreenFirel-TCF (System Biosciences) which encodes a bifunctional GFP and luciferase reporter cassette under the control of a minimal CMV reporter linked to four tandem repeats of the transcriptional response elements for TCF. Transduced cells populations, termed 293.TCF cells, were subsequently used in a Wnt3A canonical signaling assay as follows: 2.5×10^4 293.TCF cells were plated per well of a 96-well tissue culture plate in 50 μL of serum-free DME medium. After 24 hours of serum starvation, 25 μL of various dilutions of conditioned medium (CM) from L/Wnt3A cells (ATCC CRL-2647; Willert, 2003) or undiluted CM from parental L-cells (ATCC CRL-2648) along with 25 μL of DMEM+0.2% FBS were added to each well. Eighteen hours after addition of CM, 100 μL of One-Glo solution (ProMega Corp.) was added to each well. The contents of each well were then mixed thoroughly to lyse the cells, 100 μL of lysate transferred to black 96-well plates, and the luminescence in each well read after 5 mins using a Wallac Victor3 Multilabel Counter (Perkin-Elmer Corp). […] More particularly, as the Wnt3A+ CM media is diluted from 25% down to approximately 3%, activation of the Wnt pathway is reduced with a corresponding decrease in luminescence.
# Once the luciferase reporter system was established, assays for determining the bioactivity of various Notum modulators were performed as follows. 2.5×10^4 293.TCF cells were plated per well of a 96-well tissue culture plate in 50 μL of serum-free medium. After 23 hours of serum starvation, 25 μL of DMEM+0.2% FBS containing various Notum modulators at various concentrations (e.g., hNotum-His, hNotum-hFc, hNotum-S232A-His, murine Notum-His, murine Notum-hFc, macaque Notum-hFc, control protein-His or control protein-hFc obtained as per Examples 7, 8 and 13 above), were added to the cells. After 1 hour, 25 μL of Wnt3A or control L-cell CM were added to each well. Eighteen hours after addition of CM, 100 μL of One-Glo solution (ProMega Corp.) was added to each well, the contents of each well mixed thoroughly to lyse the cells, 100 μL of lysate transferred to black 96-well plates, and the luminescence read after 5 minutes.
# [4] = system: mouse lineage-depleted NTX tumor cells from SCRx-CR42; assay: Cell survival/proliferation, CellTiterGlo, SCRx-CR42; assay type: cell-based, human; conditions: 10 μg/mL, 14 days
# Experimental: (§2) To determine whether Notum protein impacts cell proliferation and/or apoptosis of human colorectal cancer cells, HCT-116 cells or mouse lineage-depleted NTX tumor cells (i.e. human tumor cells) were plated as described below and exposed to recombinant hNotum (e.g. hNotum-His or hNotum-hFc) and anti-Notum antibodies. Cell numbers were then assessed 12-14 days later.
# (§3) Cells were then incubated for 14 days at 37° C., 5% CO2 and 5% O2 and the number of viable cells was assessed using Promega's CellTiterGlo assay kit per the manufacturer's instructions. For the HCT-116 cell line (a commercially available colorectal tumor cell line), cells were plated at 2,000 cells per well in DMEM+1% FBS, followed 24-hours later by the addition of serum free DMEM containing recombinant human Notum in the presence or absence of monoclonal antibodies SC2.D2.2 or SC2.10B3. HCT-116 cells were then incubated for 12 days at 37° C., 5% CO2 and cell viability was assessed with Promega's CellTiterGlo assay kit. Higher readings are indicative of higher viable cell counts.
# [5] = 4-MUH fluorescent hydrolase assay, activity of Notum constructs; assay type: biochemical
# Experimental: as §1
# HCT-116 cells = assay: Cell survival/proliferation, CellTiterGlo, HCT-116; assay type: cell-based, human; conditions: 10 μg/mL, 12 days
# Experimental: as §2, §3
# [6] = Esterase activity of Notum proteins on chromogenic substrates; assay type: biochemical; conditions: 1 hour at 37° C.
# Experimental: Briefly, PNPA or PNPB were dissolved/diluted in isopropanol to final concentrations of 10 mM. These substrate solutions were diluted 1:10 into assay buffer (0.1% gum arabic, 2.3 mg/mL sodium dexoycholate, 1×PBS) and incubated with defined amounts of hNotum enzyme, and the enzymatic release of the chromophore p-nitrophenol monitored by absorbance measurements at 405 nm.
# [7] = Lipase activity of hNotum, turbidometric Tween 20 lipolysis; assay type: biochemical
# Experimental: Briefly, recombinant hNotum (1 μg/well) was added to an assay buffer containing 50 mM Tris, pH 7.4, 33.3 mM CaCl2, and 0.33% Tween-20. When the Tween 20 monolauryl group is cleaved by lipases (e.g. hNotum), the free fatty acid forms an insoluble complex with the Ca^2+ cations resulting in a turbid solution, the OD of which can be measured at 405 nm to provide a measure of lipase activity. As a positive control, the activity of porcine pancreatic lipase (Sigma Aldrich) was measured in the same assay.
# Chain of Wnt3A (conditioned medium from L/Wnt3A cells, ATCC CRL-2647) (P27467 19-352 limits assumed): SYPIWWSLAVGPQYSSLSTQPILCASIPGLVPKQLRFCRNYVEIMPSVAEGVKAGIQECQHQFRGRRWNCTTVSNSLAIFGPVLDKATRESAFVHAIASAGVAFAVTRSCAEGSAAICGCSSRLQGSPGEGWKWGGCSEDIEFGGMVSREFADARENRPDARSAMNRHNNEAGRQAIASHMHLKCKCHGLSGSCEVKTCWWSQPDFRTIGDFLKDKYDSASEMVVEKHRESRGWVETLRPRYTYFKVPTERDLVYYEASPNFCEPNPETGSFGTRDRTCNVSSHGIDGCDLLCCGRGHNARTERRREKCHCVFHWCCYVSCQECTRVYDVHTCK
molecule,measurement,setting,value
[Cl-].[Li+] [LiCl],activation of luciferase transcription,[1],activate luciferase transcription
CCCCCCCCCCC[C@@H](C[C@@H]1OC(=O)[C@H]1CCCCCC)OC(=O)[C@H](CC(C)C)NC=O [orlistat],inhibition of hydrolysis activity of Notum upon 4MUH,Notum,inhibits the hydrolysis activity of Notum upon 4MUH in a dose-dependent fashion
hNotum-Fc (human Notum fused to human IgG2 Fc) (Fc fusion),IC50 of the decrease in luciferase activity (293.TCF Wnt3A assay),[2],0.47
"hNotum-His: recombinant His tagged human Notum protein (protein, left off: small tags and cut ends, recombinant His tagged human Notum protein) SEGRKTWRRRGQQPPPPPRTEAAPAAGQPVESFPLDFTAVEGNMDSFMAQVKSLAQSLYPCSAQQLNEDLRLHLLLNTSVTCNDGSPAGYYLKESRGSRRWLLFLEGGWYCFNRENCDSRYDTMRRLMSSRDWPRTRTGTGILSSQPEENPYWWNANMVFIPYCSSDVWSGASSKSEKNEYAFMGALIIQEVVRELLGRGLSGAKVLLLAGSSAGGTGVLLNVDRVAEQLEKLGYPAIQVRGLADSGWFLDNKQYRHTDCVDTITCAPTEAIRRGIRYWNGVVPERCRRQFQEGEEWNCFFGYKVYPTLRCPVFVVQWLFDEAQLTVDNVHLTGQPVQEGLRLYIQNLGRELRHTLKDVPASFAPACLSHEIIIRSHWTDVQVKGTSLPRALHCWDRSLHDSHKASKTPLKGCPVHLVDSCPWPHCNPSCPTVRDQFTGQEMNVAQFLMHMGFDMQTVAQPQGLEPSELLGMLSNGS",antagonism of Wnt3A-mediated induction of luciferase,[3],functionally antagonize
same,increase in cell counts,[4],20-45%
hNotum: recombinant human Notum protein (e.g. hNotum-His or hNotum-hFc) (protein) SEGRKTWRRRGQQPPPPPRTEAAPAAGQPVESFPLDFTAVEGNMDSFMAQVKSLAQSLYPCSAQQLNEDLRLHLLLNTSVTCNDGSPAGYYLKESRGSRRWLLFLEGGWYCFNRENCDSRYDTMRRLMSSRDWPRTRTGTGILSSQPEENPYWWNANMVFIPYCSSDVWSGASSKSEKNEYAFMGALIIQEVVRELLGRGLSGAKVLLLAGSSAGGTGVLLNVDRVAEQLEKLGYPAIQVRGLADSGWFLDNKQYRHTDCVDTITCAPTEAIRRGIRYWNGVVPERCRRQFQEGEEWNCFFGYKVYPTLRCPVFVVQWLFDEAQLTVDNVHLTGQPVQEGLRLYIQNLGRELRHTLKDVPASFAPACLSHEIIIRSHWTDVQVKGTSLPRALHCWDRSLHDSHKASKTPLKGCPVHLVDSCPWPHCNPSCPTVRDQFTGQEMNVAQFLMHMGFDMQTVAQPQGLEPSELLGMLSNGS,antagonism of Wnt3A-mediated induction of luciferase,[3],antagonizes Wnt3A CM
same,antagonism of Wnt3A-mediated induction of luciferase,[3]; listed as wild-type human Notum,can inhibit the response of the 293.TCF cells to Wnt3A in a dose-dependent fashion
same,hydrolysis of the 4-MUH substrate,[5],capable of hydrolyzing the 4-MUH substrate
same,increase in cell numbers,HCT-116 cells,more than 2 fold
same,esterase activity,[6],has carboxyesterase activity
same,lipase activity,[7],capable of cleaving Tween 20 in a dose dependent fashion
